Experiment: yeast display, Sf9 membrane polyspecificity reagent, FACS + sequencing; frameworks hold sequencing errors
How it was run: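 In a synthetic yeast display library (Saccharomyces cerevisiae BJ5465), nanobody expression was induced with galactose for 36–48 hours. FACS gates were set low and high (top ~1%) using anti-HA fluorescence for expression and streptavidin fluorescence for binding of the Sf9 membrane reagent. Each polyreactivity label is drawn from the gate of origin.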

Sequence	polyreactivity (PSR sort gate)
QVQLVESGGGLVQAGGSLRLSCAASGRTFRRYVMGWYRQAPGKERELVAAISYSGATTYYADSVKGRFTISRDNAKNTVYLQMNSLKPEDTAVYYCAATAPGDRYFWGQGTQVTVSS	high polyreactivity
QVQLVESGGGLVQAGGSLRLSCAASGSTFYSYVMGWYRQAPGKERELVAVITSGGSTTYADSVKGRFTISRDNAKNTVYLQMNSLKPEDTAVYYCAKRNYLSYRYDYWGQGTQVTVSS	low polyreactivity
QVQLVESGGGLVQAGGSLRLSSAASGRTSYVYAMGWYRQEPGKERELVAVITRRGGSTYYADSVKGRFTISRDNAKNTVYLQMNSLKPEDTAVYYCNAAYTTWRRGPMNYWGQGTQVTVSS	high polyreactivity
QVQLVESGGGLVQAGGSLRLSCAASGRTFIGYAMGWYRQAPGKERELVAAISSRGGRTYYADSVKGRFTISRDNAKNTVYLQMNSLKPEDTAVYYCAAGRVKHSGYDYWGQGTQVTVSS	high polyreactivity
QVHLVESGVGLVQAGCSLRLSCAASGIIFLTNAMGWYRQAPGKERELVAAITAIGGSTYYADSVKGRFTISRDNAKNTVYLQINSLKPEDTAVYYCAADFSYVYYLYDYWGQGTQVTVSS	low polyreactivity
QVQLVESGGGLVQAGGSLRLSCAASVRIFWPYAMGWYRQAPGKERELVAAITLSGGSTYYADSVKGRFTISRDNAKNTVYLQKNCMKPVETAVYYSAGDHKRTWGGDQGKSHGYWGQGTKVTVSS	low polyreactivity
QVQLVESGGGLVQAGGSLRLSCAASGRIFWPYAMGWYRQAPGKERELVAAITSGGSTYYADSVKGRFTLSRDNAKNTVYLQMTSLKPEDTAVYYCAKRSSGVSVPVAYGGIKRYNSWGQGTQVTVSS	low polyreactivity
QVQLVESGGGLVQAGGSLRLSCAASGSTFGYYTMGWSRQAPGKERELVAAITWSGGSTYYADSVKGRFTISRHNAKNTVYLQMNSLKAEDTAVYYCAADDYWTPFGYWGQGTQVTVSS	low polyreactivity
QVQLVESGGGLVQAGGSLRLSCAASGFTFFTNAMGWYRQAPGKERELVATITSNGSTNYADSVKGRFTISRDNAKNTVYLQMISLKPEDTAVYYCAADQDSVSMDYWGQGTQVTVSS	low polyreactivity
QVQLVESGGGLVQAGGRHRISCAASGLICVTYAMGWYRQAPGKERELVAVITASGDGTYYADSVKGRFTMSRDNAKNTVYLQMNSLKPEDSAVYSCAAGNMSQVGAIGKNTSQSDYWGQGTHVTVSS	low polyreactivity
QVQLEESGGGLVQAGGRLRLSCAASGRTFGANAMGWYRQAPGKERELVATIRRGGSTYYADSVKGRFTISRDNAKNTFYLQMHSLKPEDTAVYYCATQYHSYAKEYDYWGQGTQVTVSS	low polyreactivity
QVQLVESGGGLVQAGGSHRLSCAASGSTFSWNTMGWYRQAPGKERELVASITRSDGSTYADSEKGRFTISRDNAKNTVYLQMNSLKPEDTAVYYCNADPYLYLYLNYDYWGQGTQVTVSS	low polyreactivity
QVQLVESGGGLVQAGGSLRLSCAASGSTFSVYAMGWYRQAPGKERELVAAISWSGGSTYYADSVKGRFTISRDNAKNTVYLQMNSLKPEDTAVYYCNATVTYYRYYAYVRRYYWGQGTQVTVSS	high polyreactivity
QVQLVESGGGLVQAGGSLRLSCAASGRTFDRYAMGWYRQAPGKERELVAAISRGGSTNYADSVKGRFTISRDNAKNTVYLQMNSLKPEDTAVYYCAARVSFLHLRRAYDYWGQGTQVTVSS	high polyreactivity
QVQLVESGGGLVQAGGSLRLSCAASGYTFPLYAMGWYTQAPGKERELVADINIGGASTYYADSVKGRFTISRDNAKNTVYLQMNSLKPEDTAVYDCAKEYYDGYFPTFEYDYWGQGTQVTVSS	low polyreactivity
QVQLVESGGGLVQAGGSLRLSCAASGRIFGIYTMGWYRQAPGKERELVAAITQGGGSTYYADSVKGRFTISRDNAKNTVYLQMNSLNPEDTAVYYCAARPKSPSGTRRYYWGQGTQVTVSS	high polyreactivity
QVQLVESGGGLVQAGGSLRLSCAASGSTFRLYAMGWYRQAPGKERELVAAISQRGGSTYYADSVKGRFTISRDNAKNTVYLQMNSLKPEDTAVYYCNTDWYRKWGKPYYYWGQGTQVTVSS	high polyreactivity
QVQLVESGGGLVQAGGSLRLSCAASGSTLVGNTMGWYRQSPGKERELVAAITGVGSTNYADSVKGRFTISRDNAKNTVYLQMNSLKPEDTAVYYCAAQYSYTYIVSYLYDMDYWGQGTQVTVSS	low polyreactivity
QVQLVESGGGLVQAGGSLRLSCAASGFIFYVYAMGWYRQAPGKERELVATITSGGSTNYADSVKGRFTISRDNAKNTVYLQMNSLKPEDTAVYYCAADGWQSQYEYDYWGQGTQVTVSS	low polyreactivity
QVQLVESGGGLVQAGGSLRSSCAASGYTFRYYAMGWSRQAPGKERELVAAITSSSNTTYADSVKGRFTISRDNEKNTVYLQMNSLKPDDTGVYYCNTPYFTGYYWGQGTQVTVSS	high polyreactivity
QVQHVESGGGLVQAGGSLRLICAASGFTFHLYAMGWYRQAPGKERELVASITYSGGSTYYADSVKGRFTISRDKAKNTVYLHMNSLKAEDTAFYYCNRYSSSYSYDYWGQATQVTVSS	high polyreactivity
QVQLVESGGGLVQAGGSLRLICSASGRIFSYNVMGWYRQAPGKEREVVAAITSNDGSTYYADSVKGRFTISRDNAKNTVYLQMNSLKPEDTAVYYCAAPYDYAEYYYWGQGTQVTVSS	low polyreactivity

Sequence	polyreactivity (PSR sort gate)
QVQLVESGGRLVQAGGSLRLSCAASGRTIGYYAMGWSRQAPGNEWELVAAISGSGGSTYYADSVKGRFTISRDNAKNTVYLQMNSLKPEDTAVYYCAATTQSRRYEYYYWGQGTQVTVSS	high polyreactivity
QVQLVESGGGLVQAGGSLRLSCAASGSIFFYNTMGWYRQAPGKERELVARISRSGGSTYYADSVKGRFTISRDNAKNTVYLQMNSLKPEDTAVYYCAARSAPWRYRYYKPYYYWGQGTQVTVSS	high polyreactivity
QVQLEESGGGLVQAGGSLRLSCAASGRTLDYYAMGWYRQAPGKERELVASITSGGSTNYADSVKGRFTISRDNAKNTVYLQMNSLKPEDTAVYYCAADSAFYRDVKSNYWGQGTQVTVSS	low polyreactivity
QVQIVESGGGLFQAGGSLRLSCAASGITFVFYAKRRYRQAPGKERELVAAISSSGGSTYYADSVKVRFTISRDYAKNSVYLQMKSLKPDDTAVYYCNAIVFSYQRAVRYDYWGQGTQVTVSS	high polyreactivity
QVQLVESGGGLVQAGGSIRLSCAASGRILYYYVMGWYRQAPGKERELVAAITRGGSTDYADSVKGRFTISRDNAKNTVYLQMNSLKPEDTAVFYCAVPSWPFWVRVEGDYWGQGTQVSVSS	low polyreactivity
QVQLVDSGGGLVQAGGSLRLSCAASGGTFKYYAMGWYRQAPGKERELVAAITWSGGSTYYADSVKGRFTISRDNAKNTVYLQMNSLKPEDTAVYYCNAAYSQIRFNYWGQGTQVTVSS	high polyreactivity
QVQLVESGGRLVQAGGSLRLSCAASGTFDLSAMGWYSQAPGKERELVAAITYRGDTTYYADSVKGRFTISRDNAKNTVYLQMNSMKPEDTAVYYCAAEWYYQFSSWYDYWGQGSQVTVSS	high polyreactivity
QVQLVESGGGLVQAGGSLRLSCAASGNIFRRYTLGWSRQAPGKERELVAAISSGGSTNYADSVKGRFTLSRDNAKNTVYLQMNSLKPEDTAVYYCAATRRYIQYGYDYWGQGTQVTVSS	high polyreactivity
QVQLVETGGGLVQAGGSLRLSCAASGFTFRPYVMGWYRQPPGKERELVAGITWDGDSTYYADSVKGRFTISRDNPKNTVYLQMNSLKPEDTAVYYCAAEDADWVSQYYYWGQGTQVTVSS	high polyreactivity
QVQLVESGGGLVQAGCSLRLSCAASGRTFPPYAMGWYRQAPRKERELVAAISRRAGTTYYADSVKGRFTISRDNAKNTVYLQMNSLKPEDTAVYYCAALSESSSYGYWGQGTQVTVSS	low polyreactivity
QVQLVESGVVLVQAGGSLRLSCAASGSIFAGYVMGWYRQAPGKERELVASISSGTGTYYADSVKGRFTISRDNAKNTVYLQMNSLKPEDTAVYYCAAECYRTVQFIRSRWSYTYDYWGQGTQVTVSS	low polyreactivity
QLQLVESGGGLVQAGGSLRLSSAASGRTFRWNAMGWYRQAPGKERELVAAISSGGSTYYADSVKGRFTISRDNAKNTVYLQMNSLKPEDTAVYYCAKTSFKYRWSYPVISMDYWGQGTQVTVSS	high polyreactivity
QVQLVESGGGLVQAGGSLRLSCAASGRTFLVYTMGWYRQAPGKERELVAAISWSDGSTYYADSVKGRFTISRDNAKNTVYLQMNSLKPEDTAVYYCAARRTGYLYRYGYWGQGTQVTVSS	low polyreactivity
QVQLVESGGGLVQAGGSLRLSCAASGSIFYVNTIGWYRQAPGKERELVAGITSRGGSTYYADSVKGRFTISRDNAKNTVYLQMNSLKPEDTAVYYCAKRAYGTALYRGYGYWGQGTQVTVSS	low polyreactivity
QVQLVESGGGLVQAGGSLRLSCAASGFIFSLYAMGWYRQAPGKERELVAAISKRGGSTNYADSVKGRFTISRDNAKNTVFLQMNSLKPEDTAVYYCAKARPGFLYDHWGQGTEVTVSS	high polyreactivity
QVQLVESGGGLVQAGGSLRLSCAASGSIFGRYTMGWYRQAPGKERELVARIRSGGTTYYADSVKGRFTISRDNAKNTVYLQMNSLKPEDTAVYYCAAGRDARDYYSWGQGTQVTVSS	high polyreactivity
QVQLVESGGGLVQAGGSLRLSCAASGSIYDYNAMGWYRQAPGKERELVAAISASGGSTYYADSVKGRFTISRDNAKNTVYLQMNSLKPEDTAVYYCAAGYWSYWSLRMDYWGQGTQVTVSS	high polyreactivity
QVQLVESGGGLVQAGGSLRLSCAASGGIFYFYAMGWSRQAPGKERELVAAISSNGGRTYYADSVKGRFTISRDNAKNTVYLQMNSLKPEDTAVYYCNAVSRVSDRHLATYDYWGQGTQVTVSS	high polyreactivity
QVQLVESGGGLVQAGGSLRLSCAASGSIFPSNAMGWYRQAPGKERELVAAINRDGITNYADSVKGRFTISRDNAKNTVYLQMNSLKPEDTAVYYCAAEFAWQWWEYGYWGQGSQVTVSS	low polyreactivity
QVQLVESGGGLVQAGGSLRLSCAASGSTFRYIAMGWYRQAPGKERELVAAISRGGSTNYADSVKGRFTISRDNAKNSVYLQMNSLKPEDTAVYYCAASGTRRGTAVWRVKPGDYWGQGTQVTVSS	high polyreactivity
QGQLVESGGGLVQAGGSLRLSCAASGSTVSYNAMGCSRPARGKERALVAAISSGGRTYYADSVKGRFTISRDNAKKTVYFQMNSLKPEDTAVYYCAVYETHWGYWYELDYWGQGTQVTVSS	high polyreactivity
